The record followed here is publication PMC10294715, “Single-cell RNA-seq uncovers dynamic processes orchestrated by RNA-binding protein DDX43 in chromatin remodeling during spermiogenesis”.

The data set concerns the target DDX43 (Mus musculus, UniProt D3Z6P9 1-646). In words: EMSA; EMSA: 10 nM biotin-RNA, 50 mM Tris-HCl pH 7.5, 100 mM KCl, 2.5% glycerol, 0.05% NP-40, 4 mM EDTA, 1 mM DTT, RiboLock 2 U, 37 C 30 min; 8% native TBE PAGE at 4 C; G4 folded in 50 mM Tris-HCl pH 7.5, 150 mM KCl, 0.1 mM EDTA. The following applies: protein: recombinant; tags: His tag (Ni-NTA, pET28a); label: 3' biotin; single strand. Background: Mobility shift assays separate free from complexed probe on a gel.

Sequence of DDX43 (D3Z6P9 entry or part of it): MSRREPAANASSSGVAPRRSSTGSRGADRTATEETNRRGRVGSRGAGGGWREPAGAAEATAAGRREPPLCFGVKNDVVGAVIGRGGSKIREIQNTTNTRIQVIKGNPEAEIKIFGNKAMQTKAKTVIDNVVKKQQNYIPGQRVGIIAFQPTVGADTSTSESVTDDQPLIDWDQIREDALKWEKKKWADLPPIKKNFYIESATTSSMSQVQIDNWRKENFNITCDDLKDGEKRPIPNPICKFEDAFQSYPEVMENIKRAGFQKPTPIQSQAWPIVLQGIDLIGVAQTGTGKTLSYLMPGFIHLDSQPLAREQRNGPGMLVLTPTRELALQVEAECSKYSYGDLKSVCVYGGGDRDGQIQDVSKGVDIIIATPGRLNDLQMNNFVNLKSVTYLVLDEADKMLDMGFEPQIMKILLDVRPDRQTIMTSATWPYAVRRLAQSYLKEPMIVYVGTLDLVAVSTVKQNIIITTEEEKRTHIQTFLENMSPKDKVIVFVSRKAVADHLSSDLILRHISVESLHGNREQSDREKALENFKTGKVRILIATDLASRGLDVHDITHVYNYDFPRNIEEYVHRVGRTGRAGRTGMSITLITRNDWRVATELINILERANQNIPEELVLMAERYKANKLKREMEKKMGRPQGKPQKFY

For the molecule ACCGCUGCCGUCGCUCCG (ssRNA) [ssRNA], the binding result is reported as “no binding”.
